Results as given in US20250059278A1 (SICHUAN HUIYU PHARMACEUTICAL, published 2025).
Where a chain is given by its changes, count along the chain named.

T1: mouse MSLN-his (Kaika Biotech, MSL-MM180) (mouse, UniProt Q61468 298-600, limits assumed)
T1 construct: Bought protein; also called muMSLN-his; muMSLN; not shown: his tag
T1 sequence (looked up): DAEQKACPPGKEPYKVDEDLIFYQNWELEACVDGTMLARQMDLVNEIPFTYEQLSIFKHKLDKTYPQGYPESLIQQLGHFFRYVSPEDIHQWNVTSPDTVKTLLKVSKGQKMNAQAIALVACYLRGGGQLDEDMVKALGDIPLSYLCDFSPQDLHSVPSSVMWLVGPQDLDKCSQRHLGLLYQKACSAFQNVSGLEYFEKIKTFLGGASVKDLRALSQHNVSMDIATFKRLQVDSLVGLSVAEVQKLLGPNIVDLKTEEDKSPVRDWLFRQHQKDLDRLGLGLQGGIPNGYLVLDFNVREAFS

B1: Control antibody 1-3C6 (bispecific antibody, human IgG1, lambda)
heavy: not shown
light: QAVVTQESALTTSPGETVTLTCRSSTGAVTTSNYANWVQEKPDHLFTGLIGGTNKRAPGVPARFSGSLIGDKAALTITGAQTEDEAIYFCALWYSNLWVFGGGTKLTVLGQPKAAPSVTLFPPSSEELQANKATLVCLISDFYPGAVTVAWKADSSPVKAGVETTTPSKQSNNKYAASSYLSLTPEQWKSHRSYSCQVTHEGSTVEKTVAPTECS
B2: MSLN single-domain antibody 3C6 (VHH)
VHH: EVQLVESGGGLVQAGESLRLSCAVSGNIGSIRHMGWHRQDPGKERELVATITTVGTTYYANFVKGRFTISRDNAKNTVYLQMNSLKPEDTGVYYCRATAHPTDYWGQGTQVTVSS
notes: also called MSLN VHH
B3: CD3 monoclonal antibody M36 (antibody, human IgG1, lambda, V domains shown)
VH: EVQLVESGGGLVQPGGSLRLSCAASGFTFNTYAMNWVRQAPGKGLEWVARIRSKYNNYATYYADSVKDRFTISRDDSKSSLYLQMNSLKTEDTAMYYCVRHSNFPNSYVSWFAYWGQGTLVTVSS
VL: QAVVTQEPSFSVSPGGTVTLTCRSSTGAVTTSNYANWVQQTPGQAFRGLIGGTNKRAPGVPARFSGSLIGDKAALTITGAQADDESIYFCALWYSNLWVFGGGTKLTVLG
notes: IgG: VH36 + IgG1 mutant CH, VL-1 + CL
B4: CD3 monoclonal antibody M43 (antibody, human IgG1, lambda, V domains shown)
VH: B3 VH with S80I, H101P, S102G, Y114L
VL: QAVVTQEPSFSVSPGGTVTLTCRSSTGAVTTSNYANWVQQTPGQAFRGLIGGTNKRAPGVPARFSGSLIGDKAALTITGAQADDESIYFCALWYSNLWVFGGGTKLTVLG
notes: IgG: VH43 + IgG1 mutant CH, VL-1 + CL
B5: CD3 monoclonal antibody M38 (antibody, human IgG1, lambda, V domains shown)
VH: B3 VH with S87N, M95V, S102G, P105L, A113Q
VL: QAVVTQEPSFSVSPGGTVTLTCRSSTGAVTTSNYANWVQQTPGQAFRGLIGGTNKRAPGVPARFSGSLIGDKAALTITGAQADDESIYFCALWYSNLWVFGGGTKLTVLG
notes: IgG: VH38 + IgG1 mutant CH, VL-1 + CL
B6: CD3 monoclonal antibody M37 (antibody, human IgG1, lambda, V domains shown)
VH: B3 VH with S80I, S87N, S102A, P105S
VL: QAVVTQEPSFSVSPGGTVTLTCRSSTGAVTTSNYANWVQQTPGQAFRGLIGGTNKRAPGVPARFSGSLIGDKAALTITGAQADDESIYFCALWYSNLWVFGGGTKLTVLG
notes: IgG: VH37 + IgG1 mutant CH, VL-1 + CL
B7: CD3 monoclonal antibody M44 (antibody, human IgG1, lambda, V domains shown)
VH: B3 VH with S87N, S102G, P105Q, V109I
VL: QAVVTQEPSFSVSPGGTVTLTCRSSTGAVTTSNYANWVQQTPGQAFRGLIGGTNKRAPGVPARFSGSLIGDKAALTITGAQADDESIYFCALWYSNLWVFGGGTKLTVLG
notes: IgG: VH44 + IgG1 mutant CH, VL-1 + CL
B8: CD3 monoclonal antibody M40 (antibody, human IgG1, lambda, V domains shown)
VH: B3 VH with S87N, H101A, S102G, P105G, A113Q
VL: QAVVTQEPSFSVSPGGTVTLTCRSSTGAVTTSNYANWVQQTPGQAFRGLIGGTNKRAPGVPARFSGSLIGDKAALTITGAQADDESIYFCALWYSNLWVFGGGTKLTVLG
notes: IgG: VH40 + IgG1 mutant CH, VL-1 + CL
B9: CD3 monoclonal antibody M42 (antibody, human IgG1, lambda, V domains shown)
VH: B3 VH with D68G, S87N, S102G, P105Q, A113Q
VL: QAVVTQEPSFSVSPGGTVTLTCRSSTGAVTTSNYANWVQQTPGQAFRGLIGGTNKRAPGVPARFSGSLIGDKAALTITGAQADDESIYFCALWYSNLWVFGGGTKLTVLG
notes: IgG: VH42 + IgG1 mutant CH, VL-1 + CL
B10: CD3 monoclonal antibody M46 (antibody, human IgG1, lambda, V domains shown)
VH: B3 VH with S80I, S102A, P105G, Y114S
VL: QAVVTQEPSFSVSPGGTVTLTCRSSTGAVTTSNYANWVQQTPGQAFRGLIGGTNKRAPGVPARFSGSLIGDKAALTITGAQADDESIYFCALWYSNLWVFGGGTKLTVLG
notes: IgG: VH46 + IgG1 mutant CH, VL-1 + CL
B11: CD3 monoclonal antibody M39 (antibody, human IgG1, lambda, V domains shown)
VH: B3 VH with S87N, S102Q, P105G, A113Q
VL: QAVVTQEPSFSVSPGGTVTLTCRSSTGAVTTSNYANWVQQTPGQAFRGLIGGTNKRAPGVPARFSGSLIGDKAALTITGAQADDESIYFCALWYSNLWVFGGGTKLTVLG
notes: IgG: VH39 + IgG1 mutant CH, VL-1 + CL
B12: CD3 monoclonal antibody M41 (antibody, human IgG1, lambda, V domains shown)
VH: B3 VH with D68G, S87N, P105Q
VL: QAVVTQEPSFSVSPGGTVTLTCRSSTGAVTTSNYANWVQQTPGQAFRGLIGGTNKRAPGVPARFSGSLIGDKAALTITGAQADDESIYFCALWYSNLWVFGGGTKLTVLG
notes: IgG: VH41 + IgG1 mutant CH, VL-1 + CL
B13: CD3 monoclonal antibody M45 (antibody, human IgG1, lambda, V domains shown)
VH: B3 VH with S87N, P105G, A113Q
VL: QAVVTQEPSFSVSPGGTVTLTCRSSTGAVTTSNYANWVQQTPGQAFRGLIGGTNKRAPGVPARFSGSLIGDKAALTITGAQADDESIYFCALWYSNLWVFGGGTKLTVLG
notes: IgG: VH45 + IgG1 mutant CH, VL-1 + CL
B14: Positive control bispecific antibody OKT3-3C6 (bispecific antibody, human IgG1, lambda)
heavy: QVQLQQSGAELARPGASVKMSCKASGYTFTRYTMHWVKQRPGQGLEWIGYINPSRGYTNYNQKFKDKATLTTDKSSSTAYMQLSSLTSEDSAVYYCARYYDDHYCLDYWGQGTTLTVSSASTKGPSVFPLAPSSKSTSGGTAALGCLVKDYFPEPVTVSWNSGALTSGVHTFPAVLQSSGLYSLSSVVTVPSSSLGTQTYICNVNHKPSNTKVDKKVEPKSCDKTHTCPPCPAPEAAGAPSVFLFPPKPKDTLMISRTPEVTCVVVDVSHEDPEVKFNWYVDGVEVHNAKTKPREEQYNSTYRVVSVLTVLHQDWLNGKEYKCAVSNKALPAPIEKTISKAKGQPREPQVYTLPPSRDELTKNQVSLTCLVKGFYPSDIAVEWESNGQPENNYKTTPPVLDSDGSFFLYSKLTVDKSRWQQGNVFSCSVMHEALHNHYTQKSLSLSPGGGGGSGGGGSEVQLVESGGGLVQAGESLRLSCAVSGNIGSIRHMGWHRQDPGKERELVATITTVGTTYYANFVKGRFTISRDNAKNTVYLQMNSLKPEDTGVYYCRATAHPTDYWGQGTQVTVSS
light: QIVLTQSPAIMSASPGEKVTMTCSASSSVSYMNWYQQKSGTSPKRWIYDTSKLASGVPAHFRGSGSGTSYSLTISGMEAEDAATYYCQQWSSNPFTFGSGTKLEIGQPKAAPSVTLFPPSSEELQANKATLVCLISDFYPGAVTVAWKADSSPVKAGVETTTPSKQSNNKYAASSYLSLTPEQWKSHRSYSCQVTHEGSTVEKTVAPTECS

target: T2, Human CD3 on Jurkat cells (human, UniProt P07766 23-207; P09693 23-182; P04234 22-171); assay: cell-based or functional assay

Binder | EC50 (nM), activation of Jurkat-TIGIT-luc cells with MC38/MSLN tumor cells [nM] | EC50 (nM), activation of T cell activation signaling pathway, Jurkat-TIGIT-luc cells without tumor cells [nM]
B1 | 0.036 | 0.21

target: T3, human MSLN-his (Kaika Biotech, MSL-HM18D) (human, UniProt Q13421 296-580, limits assumed); assay: ELISA, coated huMSLN-his
T3 construct: Bought protein; also called huMSLN-his; huMSLN; not shown: his tag
T3 sequence (Q13421 other isoform, or with tags, fused parts or gaps limits assumed): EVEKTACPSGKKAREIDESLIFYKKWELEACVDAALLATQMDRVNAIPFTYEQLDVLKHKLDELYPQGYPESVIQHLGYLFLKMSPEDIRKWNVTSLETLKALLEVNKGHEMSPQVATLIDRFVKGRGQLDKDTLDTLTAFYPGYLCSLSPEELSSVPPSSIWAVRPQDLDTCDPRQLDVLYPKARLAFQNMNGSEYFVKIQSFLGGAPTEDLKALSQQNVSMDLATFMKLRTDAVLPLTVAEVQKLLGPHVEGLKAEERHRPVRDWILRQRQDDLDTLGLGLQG

Binder | EC50 [nM]
B2 | 0.463

target: T1, mouse MSLN-his (Kaika Biotech, …); assay: ELISA, coated muMSLN-his

Binder | EC50 [nM]
B2 | 28.6

target: T4, monkey MSLN-his (Kaika Biotech, MSL-CM180) (monkey (cyno)); assay: ELISA, coated cynoMSLN-his
T4 construct: Bought protein; also called cynoMSLN-his; cynoMSLN

Binder | EC50 [nM]
B2 | 0.788

target: T5, Monkey CD3 on cynomolgus HSC-F cells (cynomolgus monkey, UniProt Q95LI5 22-198; Q95LI7 23-181; Q95LI8 22-171); assay: flow cytometry on HSC-F cells
T5 construct: whole, on cells; also called Monkey CD3-expressing cynomolgus HSC-F cells; cynomolgus monkey CD3-expressing HSC-F cells

Binder | EC50 [nM]
B3 | 0.109
B4 | 8.24
B5 | 0.161
B6 | 0.398
B7 | 0.141
B8 | 0.407
B9 | 0.143
B10 | 0.148
B11 | 0.498
B12 | 0.13
B13 | 0.156

target: T5, Monkey CD3 on cynomolgus HSC-F cells; assay: flow cytometry on HSC-F cells; remark: another data set of the same source

Binder | EC50 [nM] | binding result
B1 | 0.28 | 
B14 |  | no binding (tested: 2 µg/ml starting concentration)

target: T2, Human CD3 on Jurkat cells; assay: flow cytometry on Jurkat cells

Binder | EC50 [nM]
B3 | 0.198
B4 | 10.2
B5 | 0.176
B6 | 0.211
B7 | 1.61
B8 | 3.41
B9 | 0.431
B10 | 0.338
B11 | 0.759
B12 | 0.751
B13 | 0.415

target: T2, Human CD3 on Jurkat cells; assay: flow cytometry on Jurkat cells; remark: another data set of the same source

Binder | EC50 [nM]
B1 | 0.222
B14 | 0.0736

target: T6, Human MSLN on MC38/MSLN stably transfected cells (Example 5) (human, UniProt Q13421 296-598); assay: flow cytometry on MC38/MSLN cells
T6 construct: whole, on cells; also called MC38/MSLN cells; huMSLN
T6 sequence (Q13421 other isoform, or with tags, fused parts or gaps limits assumed): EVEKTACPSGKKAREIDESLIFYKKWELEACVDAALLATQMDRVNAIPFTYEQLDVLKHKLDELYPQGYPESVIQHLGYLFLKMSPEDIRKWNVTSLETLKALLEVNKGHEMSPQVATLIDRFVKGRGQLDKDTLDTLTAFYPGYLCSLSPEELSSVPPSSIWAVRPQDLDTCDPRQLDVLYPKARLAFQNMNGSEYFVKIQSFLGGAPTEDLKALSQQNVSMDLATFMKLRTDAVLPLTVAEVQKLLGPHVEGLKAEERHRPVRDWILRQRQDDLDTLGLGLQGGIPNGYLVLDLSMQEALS

Binder | EC50 [nM]
B2 | 11.8

target: T7, Human CD3εγ recombinant antigen (acrobiosystems, Cat. No. CDG-H52W5) (human, UniProt P07766 23-126; P09693 23-116); assay: SPR chip (Carterra), antibody captured, antigen in flow;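 also: antibodies captured through anti-human IgG Fc at roughly 1000 RU, kinetic constants fitted with a 1:1 binding model in Carterra analysis software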
T7 construct: Bought recombinant protein

Binder | Kd [nM] | koff [s⁻¹] | kon [M⁻¹ s⁻¹]
B3 | 1.69 | 0.0109 | 6.46e+06
B4 | 13.3 | 0.0016 | 120000
B5 | 2.33 | 0.00268 | 1.15e+06
B6 | 5.31 | 0.0043 | 810000
B7 | 3.33 | 0.00334 | 1e+06
B8 | 1.28 | 0.00055 | 431000
B9 | 1.15 | 0.00137 | 1.19e+06
B10 | 2.05 | 0.00205 | 999000
B11 | 29.7 | 0.0305 | 1.02e+06
B12 | 1.52 | 0.00513 | 3.38e+06
B13 | 1.87 | 0.00344 | 1.85e+06

target: T8, huMSLN-Fc (Kaika Biotech, MSL-HM280) (human, UniProt Q13421 296-580, limits assumed); assay: SPR chip (Carterra), 3C6 captured by anti-DYKDDDDK, huMSLN-Fc in flow
T8 construct: Bought protein; also called huMSLN-hFc; hFc-tagged human MSLN recombinant protein; not shown: Fc (hFc) tag

Binder | Kd [nM] | koff [s⁻¹] | kon [M⁻¹ s⁻¹]
B2 | 5.66 | 0.000304 | 53600

target: T9, cynoMSLN-Fc (Kaika Biotech, MSL-CM280) (cyno); assay: SPR chip (Carterra), 3C6 captured by anti-DYKDDDDK, cynoMSLN-Fc in flow
T9 construct: Bought protein

Binder | Kd [nM] | koff [s⁻¹] | kon [M⁻¹ s⁻¹]
B2 | 1.04 | 4.69e-05 | 45300
